Test results: paper PMC6624373

Molecular target: lamin A R7/8E double mutant (human) (UniProt P02545)
Assay: rotary metal shadowing EM; in vitro assembly assay: after dialysis into 25 mM MES, 150 mM NaCl, 1 mM DTT, 1 mM EGTA pH 6.5, 30% glycerol; dimers scored as singular or incorporated into head-to-tail oligomers

- stoichiometry N: 2
Substance: lamin A R7/8E double mutant (from UniProt P02545 1-646) (natural protein)
